Measurements as given in the supplement of paper PMC11316812.
± gives the standard deviation of the averaged measurements.

Columns and labels:
MCF7 = assay: percentage of EdU-negative (G0-arrested) nuclei per well, 72 h; higher = more G0 arrest; settings: reference: sequence is the full UniProt precursor, the tested protein was the secreted form or ectodomain
hTERT-HMEC = assay: as above; settings: reference: sequence is the full UniProt precursor, the tested protein was the secreted form or ectodomain
[1] = protein concentration 0.0225 µM
[2] = protein concentration 0.01025 µM
[3] = protein concentration 0.1025 µM
[4] = protein concentration 0.02025 µM
[5] = protein concentration 0.2025 µM
[6] = protein concentration 0.00575 µM
[7] = protein concentration 0.0575 µM
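Also: secreted proteins added to cultured cells, EdU pulse at the end, nuclei found by Hoechst imaging, EdU status from nuclear versus surrounding ring intensity ratio, PBS as neutral control.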

Sequence | percentage of EdU-negative (MCF7; [1]) | percentage of EdU-negative (MCF7; protein concentration 0.225 µM) | percentage of EdU-negative (hTERT-HMEC; [1]) | percentage of EdU-negative (hTERT-HMEC; protein concentration 0.225 µM) | further results
MVPRISAAIFIFELLGSNSEGVTDLRLWLCQPAPRCGEWTYNPLEQCCDDGVILDLNQTRLCGSSCTFWPCFQHCCLESLGSQNQTVVRFKVPGMKPDCKSSPITRICAQEYHPKSPVSRSDLI [Q6B9Z1] | 24.3 ± 0.92% | 24.9 ± 0.9% | 4.65 ± 1.1% | 5.64 ± 0.86% | –
MVRARHQPGGLCLLLLLLCQFMEDRSAQAGNCWLRQAKNGRCQVLYKTELSKEECCSTGRLSTSWTEEDVNDNTLFKWMIFNGGAPNCIPCKETCENVDCGPGKKCRMNKKNKPRCVCAPDCSNITWKGPVCGLDGKTYRNECALLKARCKEQPELEVQYQGRCKKTCRDVFCPGSSTCVVDQTNNAYCVTCNRICPEPASSEQYLCGNDGVTYSSACHLRKATCLLGRSIGLAYEGKCIKAKSCEDIQCTGGKKCLWDFKVGRGRCSLCDELCPDSKSDEPVCASDNATYASECAMKEAACSSGVLLEVKHSGSCNSISEDTEEEEEDEDQDYSFPISSILEW | – | – | – | – | percentage of EdU-negative (MCF7; [2]): 25.7 ± 1.4%; percentage of EdU-negative (MCF7; [3]): 26.2 ± 0.46%; percentage of EdU-negative (hTERT-HMEC; [2]): 5.35 ± 0.64%; percentage of EdU-negative (hTERT-HMEC; [3]): 6.11 ± 0.15%
MVRLAAELLLLLGLLLLTLHITVLRGSGAADGPDAAAGNASQAQLQNNLNVGSDTTSETSFSLSKEAPREHLDHQAAHQPFPRPRFRQETGHPSLQRDFPRSFLLDLPNFPDLSKADINGQNPNIQVTIEVVDGPDSEADKDQHPENKPSWSVPSPDWRAWWQRSLSLARANSGDQDYKYDSTSDDSNFLNPPRGWDHTAPGHRTFETKDQPEYDSTDGEGDWSLWSVCSVTCGNGNQKRTRSCGYACTATESRTCDRPNCPGIEDTFRTAATEVSLLAGSEEFNATKLFEVDTDSCERWMSCKSEFLKKYMHKVMNDLPSCPCSYPTEVAYSTADIFDRIKRKDFRWKDASGPKEKLEIYKPTARYCIRSMLSLESTTLAAQHCCYGDNMQLITRGKGAGTPNLISTEFSAELHYKVDVLPWIICKGDWSRYNEARPPNNGQKCTESPSDEDYIKQFQEAREY [B1AKI9] | – | – | – | – | percentage of EdU-negative (MCF7; [4]): 25.3 ± 2.1%; percentage of EdU-negative (MCF7; [5]): 24.1 ± 0.87%; percentage of EdU-negative (hTERT-HMEC; [4]): 4.82 ± 0.37%; percentage of EdU-negative (hTERT-HMEC; [5]): 5.13 ± 0.59%
MVRMVPVLLSLLLLLGPAVPQENQDGRYSLTYIYTGLSKHVEDVPAFQALGSLNDLQFFRYNSKDRKSQPMGLWRQVEGMEDWKQDSQLQKAREDIFMETLKDIVEYYNDSNGSHVLQGRFGCEIENNRSSGAFWKYYYDGKDYIEFNKEIPAWVPFDPAAQITKQKWEAEPVYVQRAKAYLEEECPATLRKYLKYSKNILDRQDPPSVVVTSHQAPGEKKKLKCLAYDFYPGKIDVHWTRAGEVQEPELRGDVLHNGNGTYQSWVVVAVPPQDTAPYSCHVQHSSLAQPLVVPWEAS | 26.1 ± 2% | 26.1 ± 1.9% | 5.49 ± 0.45% | 5.19 ± 0.89% | –
MVRPMLLLSLGLLAGLLPALAACPQNCHCHSDLQHVICDKVGLQKIPKVSEKTKLLNLQRNNFPVLAANSFRAMPNLVSLHLQHCQIREVAAGAFRGLKQLIYLYLSHNDIRVLRAGAFDDLTELTYLYLDHNKVTELPRGLLSPLVNLFILQLNNNKIRELRAGAFQGAKDLRWLYLSENALSSLQPGALDDVENLAKFHVDRNQLSSYPSAALSKLRVVEELKLSHNPLKSIPDNAFQSFGRYLETLWLDNTNLEKFSDGAFLGVTTLKHVHLENNRLNQLPSNFPFDSLETLALTNNPWKCTCQLRGLRRWLEAKASRPDATCASPAKFKGQHIRDTDAFRSCKFPTKRSKKAGRH | – | – | – | – | percentage of EdU-negative (MCF7; [6]): 26.1 ± 0.54%; percentage of EdU-negative (MCF7; [7]): 29 ± 0.99%; percentage of EdU-negative (hTERT-HMEC; [6]): 5.33 ± 0.1%; percentage of EdU-negative (hTERT-HMEC; [7]): 7.33 ± 0.97%
MVSALRGAPLIRVHSSPVSSPSVSGPRRLVSCLSSQSSALSQSGGGSTSAAGIEARSRALRRRWCPAGIMLLALVCLLSCLLPSSEAKLYGRCELARVLHDFGLDGYRGYSLADWVCLAYFTSGFNAAALDYEADGSTNNGIFQINSRRWCSNLTPNVPNVCRMYCSDLLNPNLKDTVICAMKITQEPQGLGYWEAWRHHCQGKDLTEWVDGCDF [Q8IXA5] | 23.7 ± 1.4% | 23.6 ± 2.9% | 4.64 ± 0.051% | 10 ± 1.4% | –
